{"source": "patent US20040219131A1", "about": "(MAXYGEN, published 2004)", "binders": {"B1": {"name": "25Ep05 (ligand)", "chain": "CDLPQTHSLSNRRTLMLMAQMRRISPFSCLKDRHDFGFPEEEFDGHQFQKTQAISVLHELIQQTFNLFSTKDSSAAWDETLLEKFYIELFQQMNDLEACVIQEVGVEEIALMNVDSILAVRKYFRRITLYLTEKKYSPCAWEVVRAEIMRSFSLSTNLQESLRSKE"}, "B2": {"name": "IFN-alpha Con1 (ligand)", "chain": "CDLPQTHSLGNRRALILLAQMRRISPFSCLKDRHDFGFPQEEFDGNQFQKAQAISVLHEMIQQTFNLFSTKDSSAAWDESLLEKFYTELYQQLNDLEACVIQEVGVEETPLMNVDSILAVKKYFQRITLYLTEKKYSPCAWEVVRAEIMRSFSLSTNLQERLRRKE"}, "B3": {"name": "B9x14 (ligand)", "chain": "CDLPQTHSLGHRRTMMLLAQMRRISLFSCLKDRHDFRFPQEEFDGNHFQKVQAIFLFYEMMQQTFNLFSTKNSSAAWDETLLEKFYIELFQQMNDLEACVMQEVGVEETPLMNVDSILAVRKYFQRITLYLTEKKYSPCAWEVVRAEIMRSFSFSTNLQKRLRRKE"}, "B4": {"name": "B9x18 (ligand)", "chain": "B3 chain with H47Q, V51T, F55S, L56V, Y58H"}, "B5": {"name": "B9x17 (ligand)", "chain": "B3 chain with V51T, F55S, L56V, Y58H"}, "B6": {"name": "B9x12 (ligand)", "chain": "B3 chain with H47Q, E133K, A140S"}, "B7": {"name": "B9x16 (ligand)", "chain": "B3 chain with H47Q"}, "B8": {"name": "B9x15 (ligand)", "chain": "B3 chain with H47Q, V51T, F55S, L56V, Y58H, E133K, A140S"}, "B9": {"name": "B9x11 (ligand)", "chain": "B3 chain with E133K, A140S"}, "B10": {"name": "B9x27 (ligand)", "chain": "CDLPQTHSLSNRRTLMLMAQMRRISPFSCLKDRHDFGFPEEEFDGHQFQKVQAIFLLYELIQQTFNLFSTKNSSAAWDETLLEKFYIELFQQMNNLEACVIQEVGVEEIALMNVDSILAVRKYFRRITLYLTKKKYSPCSWEVVRAEIMRSFSFSTNLQKRLRRKE"}, "B11": {"name": "B9x21 (ligand)", "chain": "B1 chain with D72N, D95N, L154F, E160K, S161R, S164R"}, "B12": {"name": "B9x25 (ligand)", "chain": "B10 chain with Q47H, K133E, S140A"}, "B13": {"name": "B9x23 (ligand)", "chain": "B10 chain with K133E, S140A"}, "B14": {"name": "B9x24 (ligand)", "chain": "B10 chain with V51T, F55S, L56V, Y58H"}, "B15": {"name": "B9x26 (ligand)", "chain": "B10 chain with Q47H, V51T, F55S, L56V, Y58H"}, "B16": {"name": "B9x22 (ligand)", "chain": "B1 chain with Q47H, D72N, D95N, L154F, E160K, S161R, S164R"}, "B17": {"name": "B9x28 (ligand)", "chain": "B10 chain with Q47H"}}, "note": "Substitutions are numbered along the chain they refer to."}
{"molecular_target": "T1, interferon-alpha receptor (human, UniProt P17181 28-557; P48551 27-515)", "T1 sequence (looked up) 1": "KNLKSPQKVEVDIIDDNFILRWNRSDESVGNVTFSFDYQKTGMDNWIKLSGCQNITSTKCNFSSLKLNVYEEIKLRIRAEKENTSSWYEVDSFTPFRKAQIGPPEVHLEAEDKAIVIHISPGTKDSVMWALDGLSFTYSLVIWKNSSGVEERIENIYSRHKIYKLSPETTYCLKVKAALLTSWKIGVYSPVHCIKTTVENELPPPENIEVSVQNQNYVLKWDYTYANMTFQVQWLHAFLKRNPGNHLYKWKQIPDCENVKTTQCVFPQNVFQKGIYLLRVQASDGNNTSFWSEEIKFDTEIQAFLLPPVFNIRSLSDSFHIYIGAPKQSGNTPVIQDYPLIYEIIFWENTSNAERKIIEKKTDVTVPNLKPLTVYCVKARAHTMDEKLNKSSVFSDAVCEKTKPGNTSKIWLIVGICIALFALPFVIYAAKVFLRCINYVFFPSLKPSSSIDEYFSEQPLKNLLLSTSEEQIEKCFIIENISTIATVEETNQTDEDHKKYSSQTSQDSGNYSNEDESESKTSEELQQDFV", "T1 sequence (looked up) 2": "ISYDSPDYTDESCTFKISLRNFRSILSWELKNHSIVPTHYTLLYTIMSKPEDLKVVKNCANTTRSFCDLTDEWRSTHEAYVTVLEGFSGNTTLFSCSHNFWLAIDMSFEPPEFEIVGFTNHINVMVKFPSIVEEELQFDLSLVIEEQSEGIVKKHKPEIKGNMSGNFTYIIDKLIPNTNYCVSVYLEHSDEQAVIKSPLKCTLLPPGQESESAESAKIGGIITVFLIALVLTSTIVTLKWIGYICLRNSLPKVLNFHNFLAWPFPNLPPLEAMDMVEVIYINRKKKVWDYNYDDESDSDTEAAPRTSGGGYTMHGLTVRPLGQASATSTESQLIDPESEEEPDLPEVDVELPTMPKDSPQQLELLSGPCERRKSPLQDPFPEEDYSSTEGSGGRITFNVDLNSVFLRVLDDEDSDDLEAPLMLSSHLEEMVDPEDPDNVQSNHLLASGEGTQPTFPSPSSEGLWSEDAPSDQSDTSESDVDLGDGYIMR", "assay": "cell-based or functional assay"}
{"binder": "B1", "Antiviral activity relative to huIFNα-2b (EC50 huIFN-alpha 2b/EC50 sample), EMCV/HuH-7 assay": "≥ 2.5 fold relative to huIFNα-2b"}
{"binder": "B2", "Antiviral activity relative to huIFNα-2b (EC50 huIFN-alpha 2b/EC50 sample), EMCV/HuH-7 assay": "~2 fold relative to huIFNα-2b"}
{"binder": "B3", "Antiviral activity relative to huIFNα-2b (EC50 huIFN-alpha 2b/EC50 sample), EMCV/HuH-7 assay": "≥ 10 fold relative to huIFNα-2b"}
{"binder": "B4", "Antiviral activity relative to huIFNα-2b (EC50 huIFN-alpha 2b/EC50 sample), EMCV/HuH-7 assay": "≥ 10 fold relative to huIFNα-2b"}
{"binder": "B5", "Antiviral activity relative to huIFNα-2b (EC50 huIFN-alpha 2b/EC50 sample), EMCV/HuH-7 assay": "≥ 10 fold relative to huIFNα-2b"}
{"binder": "B6", "Antiviral activity relative to huIFNα-2b (EC50 huIFN-alpha 2b/EC50 sample), EMCV/HuH-7 assay": "≥ 10 fold relative to huIFNα-2b"}
{"binder": "B7", "Antiviral activity relative to huIFNα-2b (EC50 huIFN-alpha 2b/EC50 sample), EMCV/HuH-7 assay": "≥ 10 fold relative to huIFNα-2b"}
{"binder": "B8", "Antiviral activity relative to huIFNα-2b (EC50 huIFN-alpha 2b/EC50 sample), EMCV/HuH-7 assay": "≥ 5 fold relative to huIFNα-2b"}
{"binder": "B9", "Antiviral activity relative to huIFNα-2b (EC50 huIFN-alpha 2b/EC50 sample), EMCV/HuH-7 assay": "≥ 10 fold relative to huIFNα-2b"}
{"binder": "B10", "Antiviral activity relative to huIFNα-2b (EC50 huIFN-alpha 2b/EC50 sample), EMCV/HuH-7 assay": "≥ 10 fold relative to huIFNα-2b"}
{"binder": "B11", "Antiviral activity relative to huIFNα-2b (EC50 huIFN-alpha 2b/EC50 sample), EMCV/HuH-7 assay": "≥ 10 fold relative to huIFNα-2b"}
{"binder": "B12", "Antiviral activity relative to huIFNα-2b (EC50 huIFN-alpha 2b/EC50 sample), EMCV/HuH-7 assay": "≥ 10 fold relative to huIFNα-2b"}
{"binder": "B13", "Antiviral activity relative to huIFNα-2b (EC50 huIFN-alpha 2b/EC50 sample), EMCV/HuH-7 assay": "≥ 10 fold relative to huIFNα-2b"}
{"binder": "B14", "Antiviral activity relative to huIFNα-2b (EC50 huIFN-alpha 2b/EC50 sample), EMCV/HuH-7 assay": "≥ 5 fold relative to huIFNα-2b"}
{"binder": "B15", "Antiviral activity relative to huIFNα-2b (EC50 huIFN-alpha 2b/EC50 sample), EMCV/HuH-7 assay": "≥ 5 fold relative to huIFNα-2b"}
{"binder": "B16", "Antiviral activity relative to huIFNα-2b (EC50 huIFN-alpha 2b/EC50 sample), EMCV/HuH-7 assay": "≥ 10 fold relative to huIFNα-2b"}
{"binder": "B17", "Antiviral activity relative to huIFNα-2b (EC50 huIFN-alpha 2b/EC50 sample), EMCV/HuH-7 assay": "≥ 10 fold relative to huIFNα-2b"}
{"molecular_target": "T1, interferon-alpha receptor", "assay": "cell-based or functional assay", "remark": "another data set of the same source"}
{"binder": "B2", "Antiproliferative activity relative to huIFNα-2b (EC50 huIFN-alpha 2b/EC50 sample), Daudi cell thymidine incorporation assay": "~1.5 fold relative to huIFNα-2b"}
{"binder": "B3", "Antiproliferative activity relative to huIFNα-2b (EC50 huIFN-alpha 2b/EC50 sample), Daudi cell thymidine incorporation assay": "≤ 0.5 fold relative to huIFNα-2b"}
{"binder": "B4", "Antiproliferative activity relative to huIFNα-2b (EC50 huIFN-alpha 2b/EC50 sample), Daudi cell thymidine incorporation assay": "≤ 0.25 fold relative to huIFNα-2b"}
{"binder": "B5", "Antiproliferative activity relative to huIFNα-2b (EC50 huIFN-alpha 2b/EC50 sample), Daudi cell thymidine incorporation assay": "≤ 0.5 fold relative to huIFNα-2b"}
{"binder": "B7", "Antiproliferative activity relative to huIFNα-2b (EC50 huIFN-alpha 2b/EC50 sample), Daudi cell thymidine incorporation assay": "≤ 0.25 fold relative to huIFNα-2b"}
{"binder": "B8", "Antiproliferative activity relative to huIFNα-2b (EC50 huIFN-alpha 2b/EC50 sample), Daudi cell thymidine incorporation assay": "≤ 0.25 fold relative to huIFNα-2b"}
{"binder": "B10", "Antiproliferative activity relative to huIFNα-2b (EC50 huIFN-alpha 2b/EC50 sample), Daudi cell thymidine incorporation assay": "≤ 0.25 fold relative to huIFNα-2b"}
{"binder": "B11", "Antiproliferative activity relative to huIFNα-2b (EC50 huIFN-alpha 2b/EC50 sample), Daudi cell thymidine incorporation assay": "≤ 0.5 fold relative to huIFNα-2b"}
{"binder": "B12", "Antiproliferative activity relative to huIFNα-2b (EC50 huIFN-alpha 2b/EC50 sample), Daudi cell thymidine incorporation assay": "≤ 0.5 fold relative to huIFNα-2b"}
{"binder": "B13", "Antiproliferative activity relative to huIFNα-2b (EC50 huIFN-alpha 2b/EC50 sample), Daudi cell thymidine incorporation assay": "≤ 0.5 fold relative to huIFNα-2b"}
{"binder": "B14", "Antiproliferative activity relative to huIFNα-2b (EC50 huIFN-alpha 2b/EC50 sample), Daudi cell thymidine incorporation assay": "≤ 0.25 fold relative to huIFNα-2b"}
{"binder": "B15", "Antiproliferative activity relative to huIFNα-2b (EC50 huIFN-alpha 2b/EC50 sample), Daudi cell thymidine incorporation assay": "≤ 0.25 fold relative to huIFNα-2b"}
{"binder": "B16", "Antiproliferative activity relative to huIFNα-2b (EC50 huIFN-alpha 2b/EC50 sample), Daudi cell thymidine incorporation assay": "≤ 0.5 fold relative to huIFNα-2b"}
